From paper PMC11301380, “Non-invasive strategy: Developing a topical IL-4Rα-specific nanobody for the treatment of allergic airway diseases” (Materials Today Bio, 2024) come the findings set out here.

Substitutions are numbered along the chain they refer to. In names and notes the source's numbering stands.

This experiment concerns the target T1, extracellular domain of human IL-4Rα (human, UniProt P24394, biotin (Biotin-labeled IL-4Rα on the Biacore sensor chip)).
T1 construct: interleukin-4 receptor alpha, human, extracellular domain; Source and limits of the recombinant protein may stand in the materials list of the supplement; Biotin labelling is told only for the Biacore T200 experiment; also called IL-4 Receptor alpha
The experiment is described as follows: SPR; Biacore T200; biotin-labeled IL-4Rα immobilised on the sensor chip (BR100531); nanobody 15.625-2000 nM; running buffer PBS pH 7.4; 1:1 kinetic binding model. The settings on record: both partners purified. On the technique in general: Surface plasmon resonance follows binding to a sensor surface in real time, without labels.

T1 sequence (P24394 26-232): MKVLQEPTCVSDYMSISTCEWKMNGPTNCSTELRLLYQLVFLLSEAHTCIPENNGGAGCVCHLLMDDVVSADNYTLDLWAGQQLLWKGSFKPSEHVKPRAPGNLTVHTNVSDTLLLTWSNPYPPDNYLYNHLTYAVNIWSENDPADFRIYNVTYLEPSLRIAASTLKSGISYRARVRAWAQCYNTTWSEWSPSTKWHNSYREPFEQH

B1: nanobody H5 (VHH)
VHH: QVQLVESGGGSVQAGGSLRLSCAASGSISSITYLGWFRQAPGKEREGVAALSTSSGTTYYADSVKGRFTVSLDNAKNTVYLQMNSLKPEDTALYYCAAADKGREYTLARAKYWYWGQGTQVTVSA
notes: synthetic nanobody selected from a library on the convex scaffold (pRDV containing Sb-convex, Addgene 132696) with randomised CDR3; also called H5^WT; H5 monomer; source: E. coli BL21 (pSBinit), periplasmic extract, purified (TALON Superflow)
B1: the affinity, expressed as Kd, was 1420 nM.

B2: H5^E104R (VHH)
VHH: B1 VHH with E104R
notes: also called H5 mutant E104R; source: E. coli BL21 (pSBinit), periplasmic extract, purified (TALON Superflow)
In the case of B2, the dissociation constant Kd (usually a measure of binding affinity in units of concentration) came out at 1030 nM.

B3: H5^A110Y (VHH)
VHH: B1 VHH with A110Y
notes: also called H5 mutant A110Y; source: E. coli BL21 (pSBinit), periplasmic extract, purified (TALON Superflow)
Consider B3, for which the dissociation constant Kd stood at 708 nM.
